Results published in article PMC4585563.

Target: CTNNBL1^Q238A (human) (UniProt Q8WYA6)
Test: SEC; Superdex 200 10/300, 500 μl of 2 mg/ml protein, 0.5 ml/min, 40 mM Tris-HCl pH 8.0, 150 mM NaCl; molecular weight from calibration standards

stoichiometry N: 2
Substance: CTNNBL1^Q238A (from UniProt Q8WYA6 77-563) (domain or fragment)
